Reference: publication doi:10.1101/2024.05.15.594416 (bioRxiv, 2024)

Tests used:
[1] = biological target: T1, soluble CD14 (sCD14), wildtype (human, UniProt P08571 20-367); assay: BLI
T1 sequence (looked up): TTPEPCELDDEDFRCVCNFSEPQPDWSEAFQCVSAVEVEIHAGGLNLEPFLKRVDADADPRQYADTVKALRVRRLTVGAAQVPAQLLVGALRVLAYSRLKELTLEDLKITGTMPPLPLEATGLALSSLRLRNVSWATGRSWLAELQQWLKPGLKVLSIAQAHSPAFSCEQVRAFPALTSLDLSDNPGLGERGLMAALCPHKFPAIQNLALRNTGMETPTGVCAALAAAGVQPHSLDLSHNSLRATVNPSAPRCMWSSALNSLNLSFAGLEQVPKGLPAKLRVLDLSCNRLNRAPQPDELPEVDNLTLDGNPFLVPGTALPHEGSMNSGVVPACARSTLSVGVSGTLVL

[2] = biological target: T2, soluble CD14 Surface II mutant (R90E/R92E/R117E) (human, UniProt P08571 20-367, R90E | R92E | R117E); assay: BLI
T2 sequence (looked up): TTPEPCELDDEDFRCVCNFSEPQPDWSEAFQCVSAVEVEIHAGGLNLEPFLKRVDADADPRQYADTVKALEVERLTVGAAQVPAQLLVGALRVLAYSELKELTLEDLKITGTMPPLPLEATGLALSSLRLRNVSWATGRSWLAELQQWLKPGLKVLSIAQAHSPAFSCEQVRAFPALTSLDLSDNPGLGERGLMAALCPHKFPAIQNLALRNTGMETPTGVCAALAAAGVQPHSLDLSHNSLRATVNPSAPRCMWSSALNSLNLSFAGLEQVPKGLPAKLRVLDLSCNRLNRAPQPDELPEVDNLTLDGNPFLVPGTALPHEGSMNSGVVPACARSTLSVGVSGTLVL

Kd [1]: 3.9 µM
Kd [2]: 10 µM
B1: S100A9/C3S/P114C, biotinylated (natural protein, human)
chain: TSKMSQLERNIETIINTFHQYSVKLGHPDTLNQGEFKELVRKDLQNFLKKENKNEKVIEHIMEDLDTNADKQLSFEEFIMLMARLTWASHEKMHEGDEGPGHHHKPGLGEGTC
modifications: biotin (EZ-link BMCC kit; biotinylation confirmed by MALDI-TOF)
